According to PMC6378141 (Molecular psychiatry, 2018):

Molecular target: T1, D2R(L123W:R132L), short isoform, fused to Rluc8 (human, UniProt P14416-2 1-414, L123W | R132L)
T1 sequence: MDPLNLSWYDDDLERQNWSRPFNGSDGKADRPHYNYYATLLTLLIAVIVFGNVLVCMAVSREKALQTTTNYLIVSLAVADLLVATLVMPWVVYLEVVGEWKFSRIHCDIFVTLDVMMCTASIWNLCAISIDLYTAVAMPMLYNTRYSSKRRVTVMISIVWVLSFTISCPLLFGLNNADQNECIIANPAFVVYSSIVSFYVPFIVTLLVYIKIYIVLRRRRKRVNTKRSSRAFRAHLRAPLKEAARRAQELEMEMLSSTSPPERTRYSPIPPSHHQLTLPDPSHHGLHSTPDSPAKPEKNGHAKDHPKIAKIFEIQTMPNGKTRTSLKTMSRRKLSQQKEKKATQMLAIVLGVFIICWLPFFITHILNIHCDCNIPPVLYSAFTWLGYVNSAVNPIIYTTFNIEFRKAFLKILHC
Assay: FRET or BRET

B1: bovine arrestin-2 fused to mVenus at its N-terminus (natural protein)
chain: MGDKGTRVFKKASPNGKLTVYLGKRDFVDHIDLVEPVDGVVLVDPEYLKERRVYVTLTCAFRYGREDLDVLGLTFRKDLFVANVQSFPPAPEDKKPLTRLQERLIKKLGEHAYPFTFEIPPNLPCSVTLQPGPEDTGKACGVDYEVKAFCAENLEEKIHKRNSVRLVIRKVQYAPERPGPQPTAETTRQFLMSDKPLHLEASLDKEIYYHGEPISVNVHVTNNTNKTVKKIKISVRQYADICLFNTAQYKCPVAMEEADDTVAPSSTFCKVYTLTPFLANNREKRGLALDGKLKHEDTNLASSTLLREGANREILGIIVSYKVKVKLVVSRGGLLGDLASSDVAVELPFTLMHPKPKEEPPHREVPEHETPVDTNLIELDTNDDDIVFEDFARQRLKGMKDDKEEEEDGTGSPRLNDR
maximal DA-induced recruitment, % of D2R-WT: 132 % of D2R-WT
